Patent publication US20060083734A1, “Composition and method for repairing nerve damage and enhancing functional recovery of nerve” (priority 2004, published 2006)

Key:
Type in all cases: in vivo, rat
MCA occluded rats [1] = assay: Infarct volume analysis by TTC staining after MCA occlusion and reperfusion; conditions: Long-Evans rats, 1 hr MCA occlusion, end of 4th week after FCI injury, topical GDNF 1 μg, mean±SEM, n=6
Procedure: (§1) Animals: The example conforms to the Guide for the Care and Use of Laboratory Animals, published by the US National Institutes of Health (NIH publication NO. 85-23, revised 1996). Male Long-Evans rats (National Lab. Animal Breeding and Research Center) weighing 300-350 g were used in this study. These animals were housed in a room with controlled temperature (24±1° C.) and humidity (55±5%) under a 12:12 h light-dark cycle. They were allowed free access to food and water.
Surgical procedure: The technique was a modification of the method of Huang et al (Huang S S, Tsai S K, Chih C L, Chiang L Y, Hsieh H M, Teng C M, Tsai M C. Neuroprotective effect of hexasulfobutylated C60 on rats subjected to focal cerebral ischemia. Free Radic Biol Med. 2001;30:643-649). In brief, each male Long-Evans rat was anesthetized by inhalation of a nitrous oxide/oxygen/halothane (69%:30%:1%) mixture during surgical preparation. Body temperature was maintained during surgery at 37±0.5° C. with a heating pad servo-controlled by a rectal probe. […] Measurements were performed before, during and right after unilateral MCA occlusion.
Focal ischemic infarcts were produced in the right lateral cerebral cortex in the territory of the MCA. Both common carotid arteries were exposed by midline anterior cervical incision. […]

MCA occluded rats [2] = assay: Accelerating rotarod test after FCI injury; conditions: topical GDNF 1 μg
Procedure: as §1
(§2) Surgical procedure: The technique was a modification of the method of Huang et al (Huang S S, Tsai S K, Chih C L, Chiang L Y, Hsieh H M, Teng C M, Tsai M C. Neuroprotective effect of hexasulfobutylated C60 on rats subjected to focal cerebral ischemia. Free Radic Biol Med. 2001;30:643-649). […]
The accelerating rotarod was used to assess motor deficit following ischemic injury in rats (Hamm R J, Pike B R, O'Dell D M, Lyeth B G, Jenkins L W. The rotarod test: an evaluation of its effectiveness in assessing motor deficits following traumatic brain injury. J Neurotrauma. 1994; 11:187-196). The rats were placed on rungs of the accelerating rotarod and the time the animals remained on the rotarod was measured. […] The time in seconds at which each animal fell off the rungs was recorded. […]
(§3) Statistics. Data are expressed as mean±standard error of mean (S.E.M.). […]

MCA occluded rats [3] = assay: Grasping power test after FCI injury; conditions: topical GDNF 1 μg
Procedure: as §1, §2
The grasping power test was a modification of the method of Bertelli et al (Bertelli J A, Mira J C. The grasping test: a simple behavioral method for objective quantitative assessment of peripheral nerve regeneration in the rat. J Neurosci Methods. 1995;59:151-155). […] Rats were allowed to grasp the bar while being lifted by the tail with increasing firmness until they loosened their grip and the grasping power was scored.
as §3

[4] = end of 1st week after FCI injury
[5] = end of 4th week after FCI injury

B1: Glial cell line-derived neurotrophic factor (protein, UniProt P39905 78-211, looked up)
Glial cell line-derived …: SPDKQMAVLPRRERNRQAAAANPENSRGKGRRGQRGKNRGCVLTAIHLNVTDLGLGYETKEELIFRYCSGSCDAAETTYDKILKNLSRNRRLVSDKVGQACCRPIAFDDDLSFLDDNLVYHILRKHSAKRCGCI
notes: GDNF (1 μg) dissolved in HBSS solution, topically applied
infarct volume (MCA occluded rats [1]): 108.0±12.1 mm^3
mean latency to stay on the rotarod, of baseline (MCA occluded rats [2]; [4]): 50.3%
mean latency to stay on the rotarod, of baseline (MCA occluded rats [2]; [5]): 67.3%
mean value of grasping power, of baseline (MCA occluded rats [3]; [4]): 71.7%
mean value of grasping power, of baseline (MCA occluded rats [3]; [5]): 97.6%
